# B1: His6-GlnA1 (enzyme)
# chain: MVQMKKCTTKEDVLEAVKERDVKFIRTQFTDTLGIIKSWAIPAEQLEEAFENGVMFDGSSIQGFTRIEESDMKLALDPSTFRILPWRPATGAVARILGDVYLPDGNPFKGDPRYVLKTAIKEAEKMGFSMNVGPELEFFLFKLDANGNPTTELTDQGGYFDFAPLDRAQDVRRDIDYALEHMGFQIEASHHEVAPSQHEIDFRFGDVLCTADNVVTFKYVVKSIAYHKGYYASFMPKPLFGVNGSGMHSNQSLFKDGKNVFYDPDTPTKLSQDAMYYIGGLLKHIREFTAVTNPVVNSYKRLVPGYEAPVYISWSAQNRSSLIRIPATRGNGTRIELRCPDPACNPYLAFALMLRAGLEGIKNKIDPGEPTNVNIFHLSDKEREERGIRSLPADLKEAIDEMKGSKFVKEALGEHVFSHYLCAKEMEWDEYKAVVHPWELSRYLSML
# B2: His6-GlnK1 (natural protein)
# chain: MVAMKYVIAMIRPERLDAVKRELQKIEVSRLTVSSVSGYGAQKGYMEIYRAMEYDANLLEKIKIEIAVNDEFLEPTIEAIKTGAKGSDGYVGSGKIFVLPLENVIRIRTNETGPEAI
# How the values were obtained:
# Test in all cases: MST
# [1] = biological target: His6-GlnA1 (Methanosarcina mazei) (UniProt Q8PY99)
# [2] = biological target: His6-GlnK1 (Methanosarcina mazei) (UniProt Q8PYW7)
# [3] = biological target: synthesized sP26 (Davids Biotechnologie), nt-647-NHS-labeled (Methanosarcina mazei)
Molecule,Kd [1] [nM],Kd [2] [nM],Kd [3] [nM]
His6-sP26 (natural protein),45000,1400,–
B1,–,–,76
B2,–,–,47

# From publication doi:10.1101/2020.05.06.080432
